Measurements published in US20220251522.

Molecular target: T1, PoSP:SGSH^OPT:His
T1 chain: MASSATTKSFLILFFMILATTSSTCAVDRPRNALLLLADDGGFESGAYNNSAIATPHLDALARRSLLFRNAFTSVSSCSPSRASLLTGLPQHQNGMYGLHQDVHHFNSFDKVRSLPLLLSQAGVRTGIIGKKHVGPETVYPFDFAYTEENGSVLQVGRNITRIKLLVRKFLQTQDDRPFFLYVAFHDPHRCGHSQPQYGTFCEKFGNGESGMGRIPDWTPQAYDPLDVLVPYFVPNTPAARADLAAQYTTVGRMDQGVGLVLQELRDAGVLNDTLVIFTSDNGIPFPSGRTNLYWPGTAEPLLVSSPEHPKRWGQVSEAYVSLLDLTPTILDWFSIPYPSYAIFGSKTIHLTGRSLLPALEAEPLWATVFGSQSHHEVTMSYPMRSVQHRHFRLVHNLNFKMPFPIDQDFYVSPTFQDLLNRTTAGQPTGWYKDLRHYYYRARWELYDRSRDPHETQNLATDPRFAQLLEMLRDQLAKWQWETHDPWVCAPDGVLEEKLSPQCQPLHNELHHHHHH

B1: PoSP:SUMF1^OPT:His:KDEL (protein)
chain: MASSATTKSFLILFFMILATTSSTCAVDSQEAGTGAGAGSLAGSCGCGTPQRPGAHGSSAAAHRYSREANAPGPVPGERQLAHSKMVPIPAGVFTMGTDDPQIKQDGEAPARRVTIDAFYMDAYEVSNTEFEKFVNSTGYLTEAEKFGDSFVFEGMLSEQVKTNIQQAVAAAPWWLPVKGANWRHPEGPDSTILHRPDHPVLHVSWNDAVAYCTWAGKRLPTEAEWEYSCRGGLHNRLFPWGNKLQPKGQHYANIWQGEFPVTNTGEDGFQGTAPVDAFPPNGYGLYNIVGNAWEWTSDWWTVHHSVEETLNPKGPPSGKDRVKKGGSYMCHRSYCYRYRCAARSQNTPDSSASNLGFRCAADRLPTMDHHHHHHKDEL
**Q.** For B1, which sulfamidase enzymatic activity is on record?
**A.** plant-made SGSH (S4 and S12) were enzymatically active only when SUMF1 was co-expressed
